The values that follow come from PMC11620640 (2024).

Like-named read-outs stand apart in the source and are kept apart here.

Experiment [1] has as its target T1, SARS-CoV-2 prototype (PT) spike receptor binding domain (RBD) (SARS-CoV-2, UniProt P0DTC2 319-541). Kind of experiment: SPR. A general note: Surface plasmon resonance follows binding to a sensor surface in real time, without labels.
In experiment [2] the target is T1, SARS-CoV-2 prototype (PT) spike …. The experiment can be described thus: SPR. The source holds these as a separate data set.

B1: raccoon dog ACE2 (rdACE2), peptidase domain (PD), wild type (receptor)
chain: QSTEDLVNTFLEKFNYEAEELSYQSSLASWNYNTNITDENLQKMNNAGAKWSAFYEEQSKLAKTYPLEEIQDSTVKRQLRALQHSGSSVLSADKNQRLNTILNSMSTIYSTGKACNPSNPQECLLLEPGLDDIMENSKDYNERLWAWEGWRSEVGKQLRPLYEEYVALKNEMARANNYEDYGDYWRGDYEEEWENGYNYSRNQLIDDVEHTFTQIMPLYQHLHAYVRTKLMDTYPSYISPTGCLPAHLLGDMWGRFWTNLYPLTVPFGQKPNIDVTNAMVNQSWDARKIFKEAEKFFVSVGLPNMTQGFWENSMLTEPSDSWKVVCHPTAWDLGRGDFRIKMCTKVTMDDFLTAHHEMGHIQYDMAYAAQPFLLRNGANEGFHEAVGEIMSLSAATPNHLKNIGLLPPSFFEDSETEINFLLKQALTIVGTLPFTYMLEKWRWMVFKGEIPKDQWMKTWWEMKRNIVGVVEPVPHDETYCDPASLFHVANDYSFIRYYTRTIYQFQFQEALCQIAKHEGPLHKCDISNSSEAGQKLLEMLKLGKSKPWTYALEIVVGAKNMDVRPLLNYFEPLFTWLKEQNRNSFVGWNTDWSPYADQS
By Kd is commonly meant the concentration at which binding is half-saturated. Lower therefore signals a tighter complex. With B1, the Kd was determined as 70.7 nM in experiment [1] and 87.4 nM in experiment [2].
